Non-standard residues stand in square brackets, D forms with d. Primed or numbered codes have the meaning given here. *: point of attachment. Acetyl(2-(piperazin-1-yl)) = O=C(CN1CCNCC1)*; 2Nal = N[C@@H](Cc1ccc2ccccc2c1)C(=O)O; Pic(4) = not defined here; NMeA = CN[C@@H](C)C(=O)O; Ahx = NCCCCCC(=O)O Some results are limits rather than exact numbers.

One data set concerns the target T1, human NMUR2 (Homo sapiens, UniProt Q9GZQ4).
T1 construct: expressed in transfected cells
In words: Ca influx assay using CHO cells expressing human NMUR2. Format: cell-based. The following applies: CHO cells stably expressing human NMUR2; intracellular Ca elevation, FLIPR Tetra; relative to 1 μM porcine NMU-8; read-out: hNMUR2 EC50. On the procedure:
(§1) Ca Influx Assay Using CHO Cells Expressing Human NMUR1 or NMUR2
(§2) CHO cells stably expressing human NMUR1 or NMUR2 (J Biol Chem 275(28), pp. 21068-21074 (2000); and J Biol Chem 275(38), pp. 29528-29532 (2000)) were seeded onto a 384-well black/clear plate (Becton Dickinson) (10,000 cells per well) using nucleic acid-free MEM-α medium (Nikken Bio Medical Laboratory) containing 10% dialyzed blood serum (Gemini Bio Products) and 50 μg/mL gentamycin (Invitrogen), and cultured overnight in 5% carbon dioxide at 37° C. Then, after removal of the medium, the cells were loaded with Calcium Kit-Fluo 4 (Dojindo) containing 0.1% fatty acid-free BSA (Wako) at 37° C. (for 15 minutes). Further, test compounds at each concentration, as well as 1 μmol/L porcine NMU-8 (BACHEM) as a control group, were added to the cells, and an elevation of intracellular Ca concentration was monitored for 3 minutes using a FLIPR Tetra system (Molecular Devices). The agonist activity (%) of each of the test compounds for NMUR was calculated using the following formula: […]
(§3) wherein W represents a fluorescence value based on the intracellular Ca concentration in cells to which each test compound was added; X represents a fluorescence value based on the intracellular Ca concentration in cells to which only 0.1% DMSO was added; and Y represents a fluorescence value based on the intracellular Ca concentration in cells to which 1 μM porcine NMU-8 was added. The EC50 value of each test compound was calculated using Prism 5 (GraphPad).

The next data set deals with male C57BL/6J mice. Kind of data set: Subcutaneous administration test in mice (anorectic activity, food intake). Format: in vivo. The following applies: 600 nmol/kg/day subcutaneous, food intake 1 day after initiation of administration, vs solvent control. On the procedure:
Subcutaneous Administration Test in Mice Anorectic activity of the test compounds was evaluated by the following method. Each of the test compounds was dissolved in a solvent (physiological saline), and an amount of 600 nmol/kg/day was used. An amount of 2 mL/Kg of an administration liquid obtained by dissolving each test compound in physiological saline was subcutaneously administered to the back of 9- to 10-week-old male C57BL/6J mice (CLEA Japan, Inc.) (at 25° C., having free access to food and water, 12 hours of light period and 12 hours of dark period). After the administration, the mice were returned to breeding cages (individual feeding), pre-weighed food was given, and the food intake 1 day after the initiation of the administration was measured. The food intake was calculated by subtracting the weight of the food remaining from the weight of the food given on the day the administration was initiated. Based on the calculated food intake, the anorectic ratio (%) of each test compound was calculated using the following formula. […] The group where only the solvent was administered as described above was used as a control group. Food Intake Inhibition (%): {(food intake of the control group−food intake of a test compound administration group)/food intake of the control group}×100

Another data set concerns the target T2, human NMUR1 (Homo sapiens, UniProt Q9HB89).
T2 construct: expressed in transfected cells
T2 sequence (Q9HB89 1-426): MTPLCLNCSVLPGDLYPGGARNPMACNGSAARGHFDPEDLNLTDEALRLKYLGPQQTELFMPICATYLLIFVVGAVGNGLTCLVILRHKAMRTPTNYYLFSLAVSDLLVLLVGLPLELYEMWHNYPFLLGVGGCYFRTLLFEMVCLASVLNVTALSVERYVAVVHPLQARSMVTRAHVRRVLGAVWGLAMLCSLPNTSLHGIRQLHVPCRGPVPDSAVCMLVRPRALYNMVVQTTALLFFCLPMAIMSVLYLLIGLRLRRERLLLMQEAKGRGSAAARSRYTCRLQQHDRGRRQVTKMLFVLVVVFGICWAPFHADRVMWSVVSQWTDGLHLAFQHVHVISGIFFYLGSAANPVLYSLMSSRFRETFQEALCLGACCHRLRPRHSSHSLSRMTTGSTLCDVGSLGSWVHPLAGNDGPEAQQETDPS
Kind of data set: Ca influx assay using CHO cells expressing human NMUR1. The following applies: CHO cells stably expressing human NMUR1; intracellular Ca elevation, FLIPR Tetra; relative to 1 μM porcine NMU-8; read-out: hNMUR1 EC50. Format: cell-based. On the procedure:
as §1, §2, §3

A further data set deals with cynomolgus monkeys. In words: Single subcutaneous administration test in monkeys (emetic response). Format: in vivo. On the procedure: Single Subcutaneous Administration Test in Monkeys
The emetic response induced by the test compounds was evaluated by the following method.
The test compound C was dissolved in physiological saline at a concentration of 1,000 nmol/kg and the test compound D was dissolved in physiological saline at a concentration of 300 nmol/kg, and used separately. An administration liquid obtained by dissolving each test compound in physiological saline was subcutaneously administered to the back of cynomolgus monkeys (2 males and 2 females each, 3 years and 11 months old to 4 years and 4 months old). After the administration, the animals were immediately returned to their individual cages, and videotaped for 10 hours. Vomiting and dry heaves observed during the videotaping were counted. Vomits were counted as the number of instances of vomiting up to 24 hours after the completion of the videotaping.

T1 sequence (Q9GZQ4 whole entry): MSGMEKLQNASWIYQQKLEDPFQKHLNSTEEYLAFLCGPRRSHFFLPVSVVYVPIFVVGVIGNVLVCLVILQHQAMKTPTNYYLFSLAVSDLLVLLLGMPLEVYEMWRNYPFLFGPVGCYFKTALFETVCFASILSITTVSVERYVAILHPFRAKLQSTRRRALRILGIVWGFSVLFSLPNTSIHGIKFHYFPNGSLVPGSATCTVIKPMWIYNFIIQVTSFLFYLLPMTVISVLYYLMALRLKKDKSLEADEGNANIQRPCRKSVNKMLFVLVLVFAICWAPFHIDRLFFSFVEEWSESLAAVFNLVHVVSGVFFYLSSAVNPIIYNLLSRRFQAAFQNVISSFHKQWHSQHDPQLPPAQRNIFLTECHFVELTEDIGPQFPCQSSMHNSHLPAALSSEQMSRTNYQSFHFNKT

Turning to “PEG20k(AL)-Acp0,Nal(2)2,NMeAla6-NMU-8 ({PEG20k(AL)-Ahx}-Y[2Nal]LFR[NMeA]RN-NH2) [Compound G, PEG20k(AL)-Acp-Tyr-Nal(2)-Leu-Phe-Arg-NMeAla-Arg-Asn-NH2]”, the EC50 (in general, the concentration at which the effect is half-maximal) with human NMUR2 turned out to be 5.9 nM; with human NMUR1 it was 170 nM. Further, the “Food intake Inhibition” value in the data set with male C57BL/6J mice came to 71.4%.
With “PEG20k(AL)-NpipAc0,Nal(2)2,Ala6-NMU-8 ({PEG20k(AL)-Acetyl(2-(piperazin-1-yl))}-Y[2Nal]LFRARN-NH2) [Compound D, PEG20k(AL)-NpipAc-Tyr-Nal(2)-Leu-Phe-Arg-Ala-Arg-Asn-NH2]”, the EC50 was 8.8 nM with human NMUR2 and greater than 1000 nM in the data set with human NMUR1. Besides, in the data set on male C57BL/6J mice, the “Food intake Inhibition” value is reported as 70.5%. For the same substance, in the data set on cynomolgus monkeys (300 nmol/kg single subcutaneous, n = 4 (2 males, 2 females)), the “No. of vomiting (0-24 h)” value is reported as 0. For the same substance, in the data set with cynomolgus monkeys (single subcutaneous, C 1,000 nmol/kg, D 300 nmol/kg), the “emetic response (vomiting), result in words” value was “prevent vomiting”.
“PEG20k(AL)-PEG(2)0,Nal(2)2,NMeAla6-NMU-8 ({PEG20k(AL)-PEG(2)}-Y[2Nal]LFR[NMeA]RN-NH2) [PEG20k(AL)-PEG(2)-Tyr-Nal(2)-Leu-Phe-Arg-NMeAla-Arg-Asn-NH2]”: the EC50 in the data set with human NMUR2 is 39 nM; in the data set with human NMUR1 it was greater than 1000 nM. The “Food intake Inhibition” value with male C57BL/6J mice is 68.6%.
With “PEG20k(AL)-Pic(4)0,Nal(2)2,NMeAla6-NMU-8 ({PEG20k(AL)-Pic(4)}-Y[2Nal]LFR[NMeA]RN-NH2; reading uncertain) [Compound F, PEG20k(AL)-Pic(4)-Tyr-Nal(2)-Leu-Phe-Arg-NMeAla-Arg-Asn-NH2]”, the EC50 in the data set with human NMUR2 is 54 nM; with human NMUR1 it was greater than 1000 nM. Moreover, the “Food intake Inhibition” value with male C57BL/6J mice is 74.3%.
